Assay results from article PMC7211764.

Target: wild-type A3A 1-199 (APOBEC3A) (human) (UniProt P31941)
Test: SEC

Chain of wild-type A3A 1-199 (APOBEC3A), P31941 1-199 (enzyme; other documents disagree on this pair) (P31941 whole entry): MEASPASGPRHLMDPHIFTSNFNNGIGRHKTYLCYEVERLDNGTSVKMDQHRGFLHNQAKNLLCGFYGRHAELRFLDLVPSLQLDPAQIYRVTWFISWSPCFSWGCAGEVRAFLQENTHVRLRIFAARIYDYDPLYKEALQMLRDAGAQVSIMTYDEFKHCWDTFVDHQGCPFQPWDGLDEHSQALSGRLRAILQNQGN

In the case of “wild-type A3A 1-199 (APOBEC3A), P31941 1-199 (enzyme; other documents disagree on this pair)”, the stoichiometry N is reported as 2.
